Data set [1] deals with T1, PIF4 (Arabidopsis thaliana, UniProt Q8W2F3 1-430).
T1 sequence: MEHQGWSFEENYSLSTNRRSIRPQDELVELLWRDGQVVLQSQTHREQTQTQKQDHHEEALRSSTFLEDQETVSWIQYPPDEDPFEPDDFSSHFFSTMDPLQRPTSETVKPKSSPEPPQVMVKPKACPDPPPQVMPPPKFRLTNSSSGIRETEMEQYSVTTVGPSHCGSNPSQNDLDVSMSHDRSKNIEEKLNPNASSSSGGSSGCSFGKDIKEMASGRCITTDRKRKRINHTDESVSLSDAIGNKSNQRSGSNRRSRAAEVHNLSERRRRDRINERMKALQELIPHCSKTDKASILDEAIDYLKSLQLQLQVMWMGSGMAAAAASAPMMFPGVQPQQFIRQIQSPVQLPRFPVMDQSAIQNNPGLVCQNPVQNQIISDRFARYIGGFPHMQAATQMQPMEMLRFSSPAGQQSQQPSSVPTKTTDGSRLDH
Briefly: EMSA; positive control; EMSA according to Martinez et al. 2018 with minor modifications, LightShift chemiluminescent kit; buffer, salt, pH and temperature not stated. The settings on record: protein: ivt; label: 5' biotin; blunt. Background: Mobility shift assays separate free from complexed probe on a gel.

For data set [2], the target named is T1, PIF4. Briefly: EMSA; EMSA according to Martinez et al. 2018 with minor modifications, LightShift chemiluminescent kit; buffer, salt, pH and temperature not stated. The settings on record: protein: ivt; label: 5' biotin (probe); blunt.

B1: pPIL1 G-box (dsDNA)
DNA 1: TAATGGCGTGAAGGTTCTTTCCGCTCACGTGGGCCTTTTG
DNA 2: CAAAAGGCCCACGTGAGCGGAAAGAACCTTCACGCCATTA
Consider B1, for which the binding result in data set [1] is “binds”.

B2: pCLE44 PBE1 WT (dsDNA)
DNA 1: GTAATATAGTGAGGTGGTCACATGTAATGGATTCAATCCAC
DNA 2: GTGGATTGAATCCATTACATGTGACCACCTCACTATATTAC
For B2, in data set [2], the binding result is on record as “binds”.
